Measured values as given in publication doi:10.1101/2023.12.22.572801.

Target: RbpB (BT_1887), recombinant B. thetaiotaomicron RbpB (B. thetaiotaomicron) (UniProt A9IXD6)
Assay: SEC

## RbpB (BT_1887), recombinant B. thetaiotaomicron RbpB (from UniProt A9IXD6 1-44) (natural protein)
  stoichiometry N: 2
